Results reported in article PMC11879436, “VvARF19 represses VvLBD13-mediated cell wall degradation to delay softening of grape berries”.

T1: VvLBD13 (Vitis vinifera cv. Shine Muscat, UniProt D7SJL6 27-229)
T1 sequence: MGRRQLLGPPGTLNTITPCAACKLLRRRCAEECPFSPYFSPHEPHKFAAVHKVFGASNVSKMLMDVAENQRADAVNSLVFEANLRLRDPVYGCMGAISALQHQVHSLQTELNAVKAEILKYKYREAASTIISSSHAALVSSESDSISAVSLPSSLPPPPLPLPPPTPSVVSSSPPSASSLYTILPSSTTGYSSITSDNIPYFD


Molecular target: T1, VvLBD13
Experiment: EMSA; with unlabeled cold probe competition; EMSA kit (Thermo 20148), 25 C, 30 min; buffer, salt and pH not stated
Conditions: protein: recombinant; tags: His (pET-32a(+)); chain copies: 2; label: 5' biotin; blunt

Row | Binder | binding result
1 | VvEXPLA1 promoter probe (dsDNA) DNA 1: AATAGAGAAGCCCACACGTGAGCAA DNA 2: TTGCTCACGTGTGGGCTTCTCTATT | binds
2 | VvXTH10 promoter probe (dsDNA) DNA 1: TCGAGTGTTGCGGCTTTGAAAAATA DNA 2: TATTTTTCAAAGCCGCAACACTCGA | binds
